Molecular target: HLA-A*0201 molecules on T2 cells (MHC class I/β2-microglobulin complex) (human (endogenous in T2) | )
Experiment: FACS; competition with F1-peptide on T2 cells

In the case of SLSYTNPAV [P7:SLSYTNPAV, MUC1 cytoplasmic tail peptide], the IC50 is reported as 0.419 µg/mL.

Source: publication PMC5039417 (2016)
